Key:
[1] = biological target: Adenosine A2A receptor (human) (human) (UniProt P29274); experiment: cell-based or functional assay
[2] = biological target: Adenosine A2A receptor (human) (human) (UniProt P29274); experiment: flow cytometry, control antibody, HEK293-A2a cells (A2a Singlets); Parent Singlets median 230
[3] = biological target: Adenosine A2A receptor (human) (human) (UniProt P29274); experiment: flow cytometry, control antibody, HEK293-A2a cells (A2a Singlets); Parent Singlets median 230; same picture as FIG. 16O
[4] = biological target: Adenosine A2A receptor (human) (human) (UniProt P29274); experiment: flow cytometry titration 0.05-100 nM IgG, MFI; grey curve and grey number taken as HEK293-A2a cells, black (ND) as parent cells; same data as FIG. 17H
[5] = biological target: Adenosine A2A receptor (human) (human) (UniProt P29274); experiment: flow cytometry titration 0.05-100 nM IgG, MFI; grey curve and grey number taken as HEK293-A2a cells, black (ND) as parent cells, no legend on the sheet

Chain of Adenosine A2A receptor (human) (human) (P29274 whole entry): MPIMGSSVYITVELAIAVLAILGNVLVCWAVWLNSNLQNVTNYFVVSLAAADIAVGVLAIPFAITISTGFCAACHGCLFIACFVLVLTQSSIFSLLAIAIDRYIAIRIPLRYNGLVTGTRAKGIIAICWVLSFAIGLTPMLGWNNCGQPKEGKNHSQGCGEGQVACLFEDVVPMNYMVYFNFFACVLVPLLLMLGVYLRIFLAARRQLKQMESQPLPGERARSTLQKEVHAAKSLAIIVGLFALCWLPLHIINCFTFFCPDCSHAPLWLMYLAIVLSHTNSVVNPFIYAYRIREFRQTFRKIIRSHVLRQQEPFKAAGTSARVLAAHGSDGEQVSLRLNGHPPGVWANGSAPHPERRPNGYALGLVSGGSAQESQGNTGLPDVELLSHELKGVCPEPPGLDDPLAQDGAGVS

| Absolute IC50, A2A cAMP antagonist titration [1] | Absolute IC50, LANCE allosteric cAMP assay (titrated IgG, fixed NECA) [1] [nM] | Absolute IC50, cAMP allosteric A2A Perkin Elmer assay [1] [nM] | Median : RL1-H [2] | Median : RL1-H [3] | EC50 [4] [nM] | EC50 [5] [nM] | Substance |
| --- | --- | --- | --- | --- | --- | --- | --- |
| 9.43 | 9.43 | 0.513 | – | – | – | – | R&D control antibody |
| – | – | – | 7500 | 7500 | 21.7 | 21.7 | Human Adenosine A2aR monoclonal (MAB9497) (antibody) |
